From publication PMC10770331, “The virulence regulator VirB from Shigella flexneri uses a CTP-dependent switch mechanism to activate gene expression” (Nature Communications, 2024)

Key:
VirB [1] = biological target: T1, VirB (Shigella flexneri, UniProt P0A247); assay: isothermal titration calorimetry (MST KD […]); assay type: binding
T1 construct: purified recombinant wild-type VirB, His6-SUMO tag removed; encoded on virulence plasmid pINV

VirB [2] = biological target: T1, VirB; assay: microscale thermophoresis; supported by HDX-MS, crosslinking and weak CTPase activity; assay type: binding
VirB [3] = biological target: T1, VirB; assay: isothermal titration calorimetry; assay type: binding
VirB (Shigella flexneri) = biological target: T2, VirB (Shigella flexneri) (UniProt P0A247); assay: BLI; details: BLI: 25 mM HEPES/NaOH pH 7.5, 150 mM (low stringency) or 500 mM (high stringency) NaCl, 5 mM MgCl2, 1 mM DTT, 10 uM BSA, 0.01% Tween 20, +/-1 mM nucleotide …
T2 sequence: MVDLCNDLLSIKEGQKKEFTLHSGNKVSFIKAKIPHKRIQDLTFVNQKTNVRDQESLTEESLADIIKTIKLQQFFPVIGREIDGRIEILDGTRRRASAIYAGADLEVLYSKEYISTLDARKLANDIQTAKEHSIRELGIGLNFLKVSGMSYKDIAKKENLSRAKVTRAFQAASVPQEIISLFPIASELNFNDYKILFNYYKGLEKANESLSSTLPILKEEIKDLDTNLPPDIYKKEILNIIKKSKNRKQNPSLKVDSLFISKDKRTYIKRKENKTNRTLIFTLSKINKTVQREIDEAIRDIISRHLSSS

VirB [4] = biological target: T3, VirB (Shigella flexneri, UniProt P0A247 1-309); assay: BLI; 150 mM NaCl, without and with CTP; BLI: 25 mM HEPES/NaOH pH 7.5, 150 mM (low stringency) or 500 mM (high stringency) NaCl, 5 mM MgCl2, 1 mM DTT, 10 uM BSA, 0.01% Tween 20, +/-1 mM nucleotide; temperature not stated; details: protein: recombinant; tags: none (His6-SUMO removed by Ulp1); chain copies: 2; label: 5' biotin-TEG on strand 1; blunt; one end open
T3 sequence: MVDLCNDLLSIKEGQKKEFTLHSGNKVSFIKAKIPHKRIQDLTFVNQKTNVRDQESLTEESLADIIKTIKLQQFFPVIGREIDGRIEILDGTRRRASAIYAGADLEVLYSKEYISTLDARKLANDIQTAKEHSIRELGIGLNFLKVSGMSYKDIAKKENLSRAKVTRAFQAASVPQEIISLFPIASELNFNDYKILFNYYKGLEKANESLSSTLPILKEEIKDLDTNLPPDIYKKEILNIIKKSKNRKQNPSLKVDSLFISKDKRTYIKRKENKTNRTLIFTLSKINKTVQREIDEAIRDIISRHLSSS

[5] = biological target: the molecule itself; assay: mass photometry; ~100 nM protein in high-stringency buffer (25 mM HEPES/NaOH pH 7.5, 5 mM MgCl2, 500 mM NaCl, 1 mM DTT), without or with 1 mM CTP; oligomeric state in solution
[6] = biological target: the molecule itself; assay: cross-linking; 10 µM protein, room temperature, 25 mM HEPES/NaOH pH 7.5, 500 mM NaCl, 5 mM MgCl2, 0.1 mM EDTA; alone, with 1 mM CTP and/or 1 µM virS DNA oligonucleotide; 1 mM BMOE for 1 min, SDS-PAGE; homodimerization of the two N-terminal NBDs within the VirB dimer (clamp closure)

Molecule: Nc1ccn([C@@H]2O[C@H](COP(=O)(O)OP(=O)(O)O)[C@@H](O)[C@H]2O)c(=O)n1 [CDP]
- Kd (VirB [1]): ~91 µM

Molecule: Nc1ccn([C@@H]2O[C@H](COP(=O)(O)OP(=O)(O)OP(=O)(O)O)[C@@H](O)[C@H]2O)c(=O)n1 [CTP]
- Kd (VirB [2]): 11 µM

Molecule: Nc1ccn([C@@H]2O[C@H](COP(=O)(O)OP(=O)(O)OP(O)(O)=S)[C@@H](O)[C@H]2O)c(=O)n1 [CTPγS]
- Kd (VirB [3]): ~12 µM

Molecule: AATATATTCAATTAATAAATTTAGAAACTTGAGCCTGTTAACATAATCAAATTTTCTTTTGCTGTACATAATATGTACCTCGTGAGCATATGTAGTGCTCGTTTCATCATGAAATCCCACAAGATAAAGTGCCTGATGTATCAGGCTCGGAGTGTTATAGAAAAAGAGAGAACCCTGTTGAATAAGTATCTTTTTTGTTGTAAAACGAGGTACAA (double strand) [closed virS DNA (215 bp)]
- Kd (VirB (Shigella flexneri)): 2.3 µM

Molecule: NdeI-opened virS DNA (from 215 bp)
- binding signal (fraction of maximum signal on closed DNA) (VirB (Shigella flexneri)): 0.25

B1: open virS oligonucleotide (23 bp) (dsDNA)
DNA 1: GCTCGTTTCATCATGAAATCCCA
DNA 2: TGGGATTTCATGATGAAACGAGC
- binding result (VirB [4]): binds

B2: VirB from Shigella flexneri (wild type) (natural protein)
chain: MVDLCNDLLSIKEGQKKEFTLHSGNKVSFIKAKIPHKRIQDLTFVNQKTNVRDQESLTEESLADIIKTIKLQQFFPVIGREIDGRIEILDGTRRRASAIYAGADLEVLYSKEYISTLDARKLANDIQTAKEHSIRELGIGLNFLKVSGMSYKDIAKKENLSRAKVTRAFQAASVPQEIISLFPIASELNFNDYKILFNYYKGLEKANESLSSTLPILKEEIKDLDTNLPPDIYKKEILNIIKKSKNRKQNPSLKVDSLFISKDKRTYIKRKENKTNRTLIFTLSKINKTVQREIDEAIRDIISRHLSSS
notes: VirB of S. flexneri, UniProt P0A247; Native C5 was used for BMOE cross-linking; also called WT; wild-type VirB; source: E. coli Rosetta(DE3)pLysS, purified (IMAC, Ulp1 cleavage of the His6-SUMO tag, second IMAC, SEC); not shown: His6, N-terminal, cleaved; SUMO, N-terminal, cleaved
- stoichiometry N [5]: 2

B3: VirB-C5S/Q15C (natural protein)
chain: MVDLSNDLLSIKEGCKKEFTLHSGNKVSFIKAKIPHKRIQDLTFVNQKTNVRDQESLTEESLADIIKTIKLQQFFPVIGREIDGRIEILDGTRRRASAIYAGADLEVLYSKEYISTLDARKLANDIQTAKEHSIRELGIGLNFLKVSGMSYKDIAKKENLSRAKVTRAFQAASVPQEIISLFPIASELNFNDYKILFNYYKGLEKANESLSSTLPILKEEIKDLDTNLPPDIYKKEILNIIKKSKNRKQNPSLKVDSLFISKDKRTYIKRKENKTNRTLIFTLSKINKTVQREIDEAIRDIISRHLSSS
notes: VirB of S. flexneri, UniProt P0A247, lacking the native cysteine at position 5 and carrying an engineered cysteine at position 15; source: E. coli Rosetta(DE3)pLysS, purified (IMAC, Ulp1 cleavage of the His6-SUMO tag, second IMAC, SEC); not shown: His6, N-terminal, cleaved; SUMO, N-terminal, cleaved
- binding result [6]: binds
